Measurements reported in the DeepSol protein solubility set.

assay: soluble on expression in E. coli; label from the status in PepcDB or PDB records

| Sequence | soluble on expression in E. coli |
| --- | --- |
| MLIRQVTMEDLEDIIRIENDNFSAEEAATSQALKERIEVIADTFLVAEQDGQIAGYVEGPVINSRYLTDDLFHKVKPNQEKSGYIAVTSLSVDKAFQKQGVGTTLLAALKDLTVAQNRLGIHLTCHDYLISYYEMNGFSNEGLSESTHGGTVWYNMIWENPKI | not soluble |
| MLIRSETPADQRAIFDVTQAAFRGHPHSEQTEAYIVQALRAAGALTLSLVAELDARVVGHAAFSPVQISDGSPSWFGLGPVSVDPAHQGRGIGTALIEHGLARLQARGAAGCVLVGEPAYYGRFGFRPEPGLVLPDMPPTHFLALTFGAPARGTVTYHPGFAARDA | not soluble |
| MLISKHEERVKSILSARMENGNLRSRENTQVEFKQSFNKGNIAIYAKTMAAFSNNSGGYIIFGIKDSPRSIIGLQNSNFENIQQEDLTDSINNLFSPSINELGSFILKEKEINSNGDVIIVQKIIGIYTEESNIKPVIAQKNNSSEKIVNGDIFYRYRARTEKIKYAEMEQIINCRMKQERDSLFKVFEFIRNNGATNLGIVDYNNGKLSTPYGVDVVLEKNLIAKLLKKAKFIKEGSFSENEGIPVIKVTGNINLAEEVPVPLENLDETYPYIQKQLAEKLNITPQKLYALIYFKMKESKKYHLEITTSKTNKTHKFSKFALLFLKEKIIELDENKNELEHHHHHH | not soluble |
| MLISKVIKKQFAQETIENVHIAKGTAMFQGVRLTVRCFVIDGVLIDTGAKSMENEFTSFFQQQDIDQVVITHFHEDHTGCAAFLQRKMGLPIYMNELMIHYCQQKADYPLYRKVFWGKRDPFTAKPIGATFSSRSATWDVIPTPGHSIDHVAFLNRETGQLFSGDLYCQEKTKVILREENIPAIITSLQHVLTYDFGDVFCAHAGYLPNGREALQRKLDYLLELQGTIIDLYEKGTPPKQIQALLFPKKYPIVFFSGGEWDSLHIIRSVIQEYETKQAG | not soluble |
| MLITHLIDSLSDRAVITPLTPTSVIIYDKNELKVYVGFTNNRNSLEYTKEVVLLLSTEIPKKAEIREIIVSKNGDYVILEGPRSLFVVRIGAEILVAKPDRLPSECFCECYPLHDSLLLQNISLSVVKVRLLPEKCDEKTFVTAVLFSDNCIRFYNLQKKFDSLLLAVDFRNHLHQVHDENVANNTFGLQKALVSFDLIPPKPNTSHFSIISIDSDCDFYTSFVHFSCFKEGYAPRIHRIEPVDGLPCDPLDLRYIQTTNPRICSVFVLVSGGGVLSHLVVFPNEFGEFRFLVKDQLRLPSSNGDPRIVQNQIRSLKVSRYEIATSSSLFSVNIFPWFEALTSISPTSTLEKETRVSELVDAVIPSDELSNTTKWTGARALRAVSVQLTQSLATEEEELLPESENIMHLVILENKDGQPAHLFNISTFDNIWSTENKTSFGRDSVSQPPMKSTGSLEQQLAALKPLAACVISEKVSCEEAIDAAMKFFDAVDERLKKHCEISKLFVERCLAVSSSAQALDEKQQSVDQRLIEETNTVEELKIRMHETKERMEGARKGINVLFHRVDENVPLSDNEIRIFERLKEHQKMLSDMTKLVPKMTLDSNEIHRMANIVLKKRGTGEEQNRFAAVEKNATEIESLEARENKLNTGISELSI | not soluble |
| MLKFNEEQQIKDIRGALALRSDVEKVVDQVWTKGFDAVYYIGIGGTYASAMQAVTYANGKSNLPIYVQHAAEYYTTGNKRLTEKSFVILSSVTGTTQEVVQAVQEIKKVGATLFGFIDAKDSLLADLCDYVVTYPAPGTEQIKFFMVADRLMQKNNEFTDYENYYQELEEYLPTGLAEAEKSADAFGLAFAEKHRHDSIHYFIGAGNQWGAVYSYAMCYWEEQSWLRSKSIHAAEFLHGTLEIVDETTPVTLFIGEDEQRPLAERVAKLLPKICANYTIIDSKAYELPGISEKYRGRVVSFLLMHAVTQRIDAHVEKLNCHPLEIRRYYRQFDY | not soluble |
| MLKLPPLSLYIHIPWCVQKCPYCDFNSHALKGDVPHQEYVDHLLADLDADLPLAGGRALHSIFIGGGTPSLLSAEAMQALLDGVRARIPLTPDAEITMEANPGTVEADRFSGYQRAGINRISIGVQSFDPQKLTRLGRIHGPEEAKRAAQLATGLKLRSFNLDLMHGLPDQSLDEALDDLRQAIALNPPHLSWYQLTIEPNTLFSSRPPTLPDDDALWDIYEQGHALLSAAGYEQYETSAYAKPGYQCQHNLNYWRFGDYLGIGCGAHGKLTFSDGHILRTVKVRHPRGYMQGTYMDKQHDVANDDRPFEFFMNRFRLLEAAPRADFTAYTGLEEHSIRPQLDQALAQGYLTETATHWQITEHGKLFLNSLLELFLAEELEHHHHHH | not soluble |
| MLKPLLAIFMISSALSIPLNRSDFLENDHVELMPLEKDGELNDKFRQEMIFSHNLDPSDSKQLSESIKEMFKKTDVNDDGFLTAGELKQQIRKNMEEHLEKSKNDSEIFFDIVDTNKDGSIVWEEFEPHFSKMHEKDHSDSELMDVHTEDPHRVDDEKRMFNRSDITRDGRLDRMEWHIFLHPEYSAQGLVEIVNDLMGVYDKNNDEVVSQDDFVNGIPGTVDELNPEFENMEKLEKERRLREFNEEIDENSDGKATFRELYDYVDPQNFRLASKEVNDIMMLTDANNDEKLSLEELLERDWLLARSSLLSARSSLHDEM | not soluble |
| MLKSELRKKVLHKRINLSEEERRRLSEKVISNLKSLPEFKKSKKVALYCPIKGEVDLTPLFPEVLKEKELILPKVEGNEISLYRVHSPACLGVGAFGIMEPVEGERVNPEDVDFIAVPGVAFDLEGYRLGFGKGYYDRLLKRVKGLKVGVAYSFQVFERLPRDAWDIPVDVLVTEKNVRRLRDGRSLEHHHHHH | soluble |
| MLKSSASAPAKAILFGEHAVVYSKPAIAAAIDRRVTVTVSESSSTHVTIPSLGIRHSSERPSGGILDYIGRCLELYHDASPLDIRVEMEIPAGSGLGSSAALTVALIGPLDRYHGRDHGPGETAARAHRVEVDVQGAASPLDTAISTYGGLVYLDSQRRVRQFEADLGDLVIAHLDYSGETARMVAGVAERFRRFPDIMGRIMDTVESITNTAYRELLRNNTEPLGELMNLNQGLLDSMGVSTRELSMMVYEARNAGAAGSKITGAGGGGSIIAHCPGCVDDVVTALNRNWKAMRAEFSVKGLI | soluble |
| MLLAGLTSCQQKGYTITGTVDSTLNLDGNMVYIQLSQGNNLDSTTIRNGAFTFTGEHIDTAKLAYIVTASPEHNVVPIIFILEDGKISAKIGEYAAKGTPLNEENFKYSAKINELENSFKLKMEEIQADTARAAEETQAMLEKEYTAMLGEKSKITTELYQSHTNDALGARLLQNILYGEGSDSDVIAEARKKAGPIVLAHPNIVHLLAMIDNLADTQPGKMAKNFAGTDAEGNEVELFKYVGQGNYAVVDFWASWCGPCRREIPYIAEANAKFAEKGLQVVGIVVWDKMEDHLKAKEALNVVWPQIFDAKNVATDMYGIQGIPQVILFGPDGTIIERDLRGEKLIEKLSEIYNSNKK | not soluble |
| MLLDVQHGQFGFIKGGIIAVIWFSLSRTINCGQLNLECFEFWLPTSQLLVLDVCLFDAFALEHHHHHH | not soluble |
| MLLPTPEDLKKRRNELGLTQSDLAKRAGVSQPLIARIESGDVDPRLSTVRKILDAFEEAEKERQILIRDLMHSPVLHVSPEDSVEEVVNLMHVHGFSQIPVLDRGIPVGSVSEDMIVRLMGESKKKPISQLKVSGIMGESFPTVSPGISISVVSHILEGNPAVLVVEKGTVVGVVTKHDVMKLLQGQ | not soluble |
| MLLQLAEDRRRLKGVQSTVKKAEIKVELLPKYAAWAEGVLAAGGAQQDDVLMYVMLWRIDAGDYAGALEIGRHALRHGWVMPLGNRNVQTVLAEEMADAAQSAMLATTGFDVDLLLQTLELTDGLDMPDQSRARLHKAIGAVLSESNPASALNHLNHALQLDPRCGVKKDKQQLERRLRNDSR | not soluble |
| MLLQTLEERLATLRQRCAPLAQHATLSARFDRHLFRTRSTLLQGYLEEAGANLVALRQAVKHEQLPQVAWLAEHLASQLEAISRETAAWSLRQWDAAAPGLGRWQRRRIQHQEFERRLLAMTQERKIRLAQATGLVEQQTLQKEVEIYEGRLARCRHALEKIENVLARLTR | not soluble |
| MLNIGYPFWPSMRFKPRPFITPVRFKCLFCLDCCRGRHVYLTVSDIKRLVGSGHDPQKFLTFSIEGGNIRFVLSVREWDLGCIFHDPGTGKCTIHPIRPLICRIYPFMVSKRPLGVEGEEPVQYKGRMLWLYYDESCPGINSQEGEVITPEEIAELGVKFEEELSRTTFEDVIKVLLEHHHHHH | soluble |
